B1: 33G8 (antibody, V domains shown)
VH: QVQLVQSGAEVKKPGSSVKVSCKASGGTFSSSVISWVRQAPGQGLEWMGGIIPIFGTANYAQKFQGRVTITADESTSTAYMELSSLRSEDTAVYYCAREGLGCSGGSCYSGYYYGMDVWGQGTTVTVSS
VL: DIVMTQSPLSLPVTPGEPASISCRSSQSLLHSNGYNYLDWYLQKPGQSPQLLIYQASTLGSGVPDRFSGSGSGTDFTLKISRVEAEDVGVYYCMQGTHWPYTFGQGTKLEIK
B2: 34C1 (antibody, V domains shown)
VH: QVQLVQSGAEVKKPGSSVKVSCKASGGTFSSSVISWVRQAPGQGLEWMGGIIPIFGTANYAQKFQGRVTITADESTSTAYMELSSLRSEDTAVYYCAREGLGCSGGSCYSGYYYGMDVWGQGTTVTVSS
VL: DIVMTQSPLSLPVTPGEPASISCRSSESLLYSNGNTYLDWYLQKPGQSPQLLIYEVSNRASGVPDRFSGSGSGTDFTLKISRVEAEDVGVYYCMQGTRWPYTFGQGTKVEIK
B3: 32A11 (antibody, V domains shown)
VH: EVQLLESGGGLVQPGGSLRLSCAASGFTFSSYWMSWVRQAPGKGLEWVSAISGSGGSTYYADSVKGRFTISRDNSKNTLYLQMNSLRAEDTAVYYCASSPLQWVDVWGQGTTVTVSS
VL: DIQMTQSPSSLSASVGDRVTITCRASESISIWLAWYQQKPGKAPKLLIYDASNLETGVPSRFSGSGSGTNFTLTISSLQPEDFATYYCQQADSFPFTFGPGTKVDIK
B4: 39B11 (antibody, V domains shown)
VH: EVQLLESGGGLVQPGGSLRLSCAASGFTFSSYWMSWVRQAPGKGLEWVSAISGSGGSTYYADSVKGRFTISRDNSKNTLYLQMNSLRAEDTAVYYCASSPLQWVDVWGQGTTVTVSS
VL: DIQMTQSPSSLSASVGDRVTITCRASQSISSWLAWYQQKPGKAPKLLIYEASRLQSGVPSRFSGSGSGTDFTLTISSLQPEDFATYYCQQANSFPFTFGPGTKVDIK
B5: 39G8 (antibody, V domains shown)
VH: EVQLLESGGGLVQPGGSLRLSCAASGFTFSSYWMSWVRQAPGKGLEWVSAISGSGGSTYYADSVKGRFTISRDNSKNTLYLQMNSLRAEDTAVYYCASSPLQWVDVWGQGTTVTVSS
VL: DIQMTQSPSSLSASVGDRVTITCRASQGISPWLAWYQQKPGKAPKLLIYDASKLETGVPSRFSGSGSGTDFTLTISSLQPEDFATYYCQQAYSFPFTFGGGTKVEIK
B6: 39B3 (antibody, V domains shown)
VH: EVQLLESGGGLVQPGGSLRLSCAASGFTFSSYWMSWVRQAPGKGLEWVSAISGSGGSTYYADSVKGRFTISRDNSKNTLYLQMNSLRAEDTAVYYCASSPLQWVDVWGQGTTVTVSS
VL: DIQMTQSPSSLSASVGDRVTITCRASQSIGPWLAWYQQKPGKAPKLLIYDASNLETGVPSRFSGSGSGTDFTLTISSLQPEDFATYYCQQANSFPFTFGPGTKVDIK
B7: 38C11 (antibody, V domains shown)
VH: EVQLLESGGGLVQPGGSLRLSCAASGFTFSSYWMSWVRQAPGKGLEWVSAISGSGGSTYYADSVKGRFTISRDNSKNTLYLQMNSLRAEDTAVYYCASSPLQWVDVWGQGTTVTVSS
VL: DIQMTQSPSSLSASVGDRVTITCRASQSISRWLAWYQQKPGKAPKLLISDASTVQSGVPSRFSGSGSGTDFTLTISSLQPEDFATYYCQQANSFPFTFGPGTKVDIK
B8: 38A11 (antibody, V domains shown)
VH: EVQLLESGGGLVQPGGSLRLSCAASGFTFSSYWMSWVRQAPGKGLEWVSAISGSGGSTYYADSVKGRFTISRDNSKNTLYLQMNSLRAEDTAVYYCASSPLQWVDVWGQGTTVTVSS
VL: DIQMTQSPSSLSASVGDRVTITCRASQSISSWLAWYQQKPGKAPKLLIYDASTLQSGVPSRFSGSGSGTDFTLTISSLQPEDFATYYCQQGNSFPFTFGPGTKVDIK
B9: 32D2 (antibody, V domains shown)
VH: EVQLLESGGGLVQPGGSLRLSCAASGFTFSSYWMSWVRQAPGKGLEWVSAISGSGGSTYYADSVKGRFTISRDNSKNTLYLQMNSLRAEDTAVYYCASSPLQWVDVWGQGTTVTVSS
VL: DIQMTQSPSSLSASVGDRVTITCRASQGISRWLAWYQQKPGKAPKLLIYEASTLQSGVPSRFSGSGSGTDFTLTISSLQPEDFATYYCQQAYSFPFTFGQGTKVDIK
B10: 38A10 (antibody, V domains shown)
VH: EVQLLESGGGLVQPGGSLRLSCAASGFTFSSYWMSWVRQAPGKGLEWVSAISGSGGSTYYADSVKGRFTISRDNSKNTLYLQMNSLRAEDTAVYYCASSPLQWVDVWGQGTTVTVSS
VL: DIQMTQSPSSLSASVGDRVTITCRASQSISTWLAWYQQKPGKAPKLLIYDASRLQNGVPSRFSGSGSGTDFTLTISSLQPEDFATYYCQQGDSFPFTFGPGTKVDIK
B11: 32D11 (antibody, V domains shown)
VH: EVQLLESGGGLVQPGGSLRLSCAASGFTFSSYWMSWVRQAPGKGLEWVSAISGSGGSTYYADSVKGRFTISRDNSKNTLYLQMNSLRAEDTAVYYCASSPLQWVDVWGQGTTVTVSS
VL: DIQMTQSPSSLSASVGDRVTITCRASQSINIWLAWYQQKPGKAPKLLIYDASNLETGVPSRFSGSGSGTDFTLTISSLQPEDFATYYCQQGYSFPFTFGPGTKVDIK

Key:
hPD-1-Fc [1] = biological target: T1, hPD-1-Fc (human, UniProt Q15116 25-167); assay: ELISA, hPD1-Fc coated
T1 construct: domain: IgV domain; also called human PD-1-Fc; not shown: human IgG1 Fc
T1 sequence (Q15116 25-167 limits assumed): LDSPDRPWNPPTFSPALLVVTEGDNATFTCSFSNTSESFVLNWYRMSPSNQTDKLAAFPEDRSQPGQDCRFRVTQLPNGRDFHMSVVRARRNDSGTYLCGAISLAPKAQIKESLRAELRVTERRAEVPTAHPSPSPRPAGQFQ

hPD-1-his [2] = biological target: T2, hPD-1-his (human, UniProt Q15116 25-167); assay: ELISA, hPD-1-his on anti-his
T2 construct: domain: IgV domain; monomer in solution; biotin-labelled where captured by streptavidin; also called biotin-hPD-1-his
T2 sequence (Q15116 other isoform, or with tags, fused parts or gaps limits assumed): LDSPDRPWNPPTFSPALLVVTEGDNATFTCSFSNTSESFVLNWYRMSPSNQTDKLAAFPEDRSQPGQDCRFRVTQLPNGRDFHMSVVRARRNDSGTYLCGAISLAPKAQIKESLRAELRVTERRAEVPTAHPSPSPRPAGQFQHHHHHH

hPD-1-Fc [3] = biological target: T1, hPD-1-Fc; assay: blocking ELISA, hPD-1-Fc to hPD-L1-Fc
hPD-1-his [4] = biological target: T2, hPD-1-his; assay: ELISA, biotin-hPD-1-his on streptavidin
hPD-1-Fc [5] = biological target: T1, hPD-1-Fc; assay: ELISA, hPD-1-Fc coated
hPD-1-his [6] = biological target: T2, hPD-1-his; assay: ELISA, PD-1-his on anti-his
hPD-1-his [7] = biological target: T2, hPD-1-his; assay: ELISA, PD-1-his on streptavidin
hPD-1-Fc [8] = biological target: T1, hPD-1-Fc; assay: blocking ELISA, hPD-1 to hPD-L1; set-up: unit not given here
hPD-1-Fc [9] = biological target: T1, hPD-1-Fc; assay: SPR Biacore T200, PD-1-Fc immobilised
hPD-1-his [10] = biological target: T2, hPD-1-his; assay: SPR Biacore T200, PD-1-his immobilised

| Binder | EC50 (hPD-1-Fc [1]) | OD450 at 10 nM (hPD-1-Fc [1]) | EC50 (hPD-1-his [2]) | OD450 at 10 nM (hPD-1-his [2]) | IC50 (hPD-1-Fc [3]) | Inhibition % at 5.6 nM (hPD-1-Fc [3]) | Inhibition % at 50 nM (hPD-1-Fc [3]) | EC50 (hPD-1-his [4]) | OD450 at 10 nM (hPD-1-his [4]) | OD at 10 nM (hPD-1-Fc [5]) | OD at 10 nM (hPD-1-his [6]) | OD at 10 nM (hPD-1-his [7]) | Inhibition at 50 nM (hPD-1-Fc [8]) | Kd (hPD-1-Fc [9]) | Kd (hPD-1-his [10]) |
| --- | --- | --- | --- | --- | --- | --- | --- | --- | --- | --- | --- | --- | --- | --- | --- |
| B1 | 0.113 nM | 0.9 OD450 | 0.149 nM | 0.487 OD450 | 1.81 nM | 89.9% | 90.5% | 0.197 nM | 0.909 OD450 | – | – | – | – | – | – |
| B2 | 0.147 nM | 0.926 OD450 | 0.0866 nM | 0.521 OD450 | 2.01 nM | 89.1% | 89.3% | 0.233 nM | 0.945 OD450 | – | – | – | – | – | – |
| B3 | – | – | – | – | – | – | – | – | – | 0.921 OD | 1.03 OD | 0.919 OD | 91.1 | – | – |
| B4 | – | – | – | – | – | – | – | – | – | 1.08 OD | 0.482 OD | 0.99 OD | 93.3 | – | – |
| B5 | – | – | – | – | – | – | – | – | – | 1.06 OD | 0.484 OD | 0.981 OD | 93.2 | 0.794 nM | 2.58 nM |
| B6 | – | – | – | – | – | – | – | – | – | 1.08 OD | 0.617 OD | 0.963 OD | 92.9 | – | – |
| B7 | – | – | – | – | – | – | – | – | – | 1.02 OD | 0.404 OD | 1.05 OD | 92.7 | – | – |
| B8 | – | – | – | – | – | – | – | – | – | 1.03 OD | 0.447 OD | 1.07 OD | 93.2 | 1.02 nM | 4.93 nM |
| B9 | – | – | – | – | – | – | – | – | – | 0.922 OD | 0.591 OD | 0.932 OD | 91.7 | – | – |
| B10 | – | – | – | – | – | – | – | – | – | 1.06 OD | 0.552 OD | 1 OD | 92.8 | 0.834 nM | 4.82 nM |
| B11 | – | – | – | – | – | – | – | – | – | 0.952 OD | 0.602 OD | 0.935 OD | 91.9 | 0.554 nM | 1.44 nM |
